Results as given in the Immune Epitope Database (IEDB).
pKd: −log10 of the molar value.

What was measured:
Assay in all cases: IEDB peptide-MHC binding, purified MHC/competitive/radioactivity; filed as Kd, often an IC50 or EC50 that approximates it; ≥ and ≤ were set here for values at or beyond the usual limits of such assays
HLA-A*02:02 = target: HLA-A*02:02
HLA-A*02:06 = target: HLA-A*02:06
HLA-A*02:03 = target: HLA-A*02:03
HLA-A*68:01 = target: HLA-A*68:01
HLA-A*03:01 = target: HLA-A*03:01
HLA-A*11:01 = target: HLA-A*11:01
HLA-A*31:01 = target: HLA-A*31:01
HLA-A*33:01 = target: HLA-A*33:01
[1] = source organism: Vaccinia virus WR
[2] = source organism: SARS coronavirus Tor2
[3] = source organism: Mammarenavirus lassaense
[4] = source organism: Mammarenavirus guanaritoense

## YIRRNMINKL
HLA-A*02:02; [1]
  pKd: 6.09
HLA-A*02:06; [1]
  pKd: 5.06
HLA-A*02:03; [1]
  pKd: 7.16

## IAACAMLLV
HLA-A*02:02; [2]
  pKd: 6.49
HLA-A*02:06; [2]
  pKd: 6.88
HLA-A*02:03; [2]
  pKd: 6.41

## DVDMDFDLNI
HLA-A*02:02; [1]
  pKd: 5.69
HLA-A*02:06; [1]
  pKd: 5.24
HLA-A*02:03; [1]
  pKd: 5.82

## VVKDKIKLPT
HLA-A*02:02; [1]
  pKd: ≤ 4.43
HLA-A*02:06; [1]
  pKd: ≤ 4.53
HLA-A*02:03; [1]
  pKd: 5.07

## AVTLNRIKI
HLA-A*02:02; [1]
  pKd: 4.97
HLA-A*02:06; [1]
  pKd: 5.12
HLA-A*02:03; [1]
  pKd: 5.48

## ETQSGALEVL
HLA-A*02:02; [1]
  pKd: 5.27
HLA-A*02:06; [1]
  pKd: 5.80
HLA-A*02:03; [1]
  pKd: 4.84

## SLVSAGSGKV
HLA-A*02:03; source organism: Dengue virus 3 Martinique/1243/1999
  pKd: 7.71

## EATFIDVHI
HLA-A*02:02; [1]
  pKd: 5.78
HLA-A*02:06; [1]
  pKd: 5.46
HLA-A*02:03; [1]
  pKd: 6.06

## VQFSILNNPV
HLA-A*02:02; [1]
  pKd: 6.88
HLA-A*02:06; [1]
  pKd: 6.73
HLA-A*02:03; [1]
  pKd: 6.43

## LLEMKYALI
HLA-A*02:02; [1]
  pKd: 6.45
HLA-A*02:06; [1]
  pKd: 4.83
HLA-A*02:03; [1]
  pKd: 6.87

## VILPDKIDGL
HLA-A*02:02; [1]
  pKd: 5.09
HLA-A*02:06; [1]
  pKd: 6.62
HLA-A*02:03; [1]
  pKd: 4.97

## ELLEMKYAL
HLA-A*02:02; [1]
  pKd: 6.02
HLA-A*02:06; [1]
  pKd: 5.22
HLA-A*02:03; [1]
  pKd: 6.06

## LLMEGLKLLS
HLA-A*02:02; [3]
  pKd: 7.11
HLA-A*02:06; [3]
  pKd: 5.76
HLA-A*02:03; [3]
  pKd: 7.40

## NIREGTHVLL
HLA-A*02:02; [1]
  pKd: 5.05
HLA-A*02:06; [1]
  pKd: ≤ 4.46
HLA-A*02:03; [1]
  pKd: 5.26

## YIWKSYVHI
HLA-A*02:02; [2]
  pKd: 7.06
HLA-A*02:06; [2]
  pKd: 8.05
HLA-A*02:03; [2]
  pKd: 7.89

## YTEAAAATCA
HLA-A*02:02; [1]
  pKd: ≤ 4.44
HLA-A*02:06; [1]
  pKd: 5.15
HLA-A*02:03; [1]
  pKd: 4.79

## PIIYSKAGNI
HLA-A*02:02; [1]
  pKd: 6.18
HLA-A*02:06; [1]
  pKd: 6.14
HLA-A*02:03; [1]
  pKd: 6.86

## NCLSLLLSV
HLA-A*02:02; [3]
  pKd: 7.31
HLA-A*02:06; [3]
  pKd: 6.20
HLA-A*02:03; [3]
  pKd: 6.36

## YVMCTGSFKL
HLA-A*02:06; source organism: Dengue virus 1 Brazil/97-11/1997
  pKd: 7.73

## LLKETIQKDI
HLA-A*02:02; [1]
  pKd: 5.51
HLA-A*02:06; [1]
  pKd: ≤ 4.63
HLA-A*02:03; [1]
  pKd: 6.11

## YQVKTETTI
HLA-A*02:06; source organism: Dengue virus 4 Philippines/H241/1956
  pKd: 7.58

## VIADYNYKL
HLA-A*02:02; [2]
  pKd: 9.32
HLA-A*02:06; [2]
  pKd: 7.16
HLA-A*02:03; [2]
  pKd: 6.94

## SINITPDDGL
HLA-A*02:02; [1]
  pKd: 6.38
HLA-A*02:06; [1]
  pKd: 9.46
HLA-A*02:03; [1]
  pKd: 5.91

## SISSVLTIL
HLA-A*02:02; [1]
  pKd: 8.90
HLA-A*02:06; [1]
  pKd: 6.96
HLA-A*02:03; [1]
  pKd: 8.40

## FLIGANYLGK
HLA-A*68:01; [2]
  pKd: 7.29
HLA-A*03:01; [2]
  pKd: 6.67
HLA-A*11:01; [2]
  pKd: 6.27
HLA-A*31:01; [2]
  pKd: 5.43
HLA-A*33:01; [2]
  pKd: ≤ 4.47

## TCITSMAER
HLA-A*68:01; [4]
  pKd: 6.61
HLA-A*03:01; [4]
  pKd: ≤ 4.17
HLA-A*11:01; [4]
  pKd: 4.76
HLA-A*31:01; [4]
  pKd: 6.25
HLA-A*33:01; [4]
  pKd: 5.58
